Results reported in PMC6182170, “A protein–protein interaction underlies the molecular basis for substrate recognition by an adenosine-to-inosine RNA-editing enzyme”.

Biological target: T1, ADR-1 WT (Caenorhabditis elegans, UniProt Q9U3D6 1-964)
T1 sequence: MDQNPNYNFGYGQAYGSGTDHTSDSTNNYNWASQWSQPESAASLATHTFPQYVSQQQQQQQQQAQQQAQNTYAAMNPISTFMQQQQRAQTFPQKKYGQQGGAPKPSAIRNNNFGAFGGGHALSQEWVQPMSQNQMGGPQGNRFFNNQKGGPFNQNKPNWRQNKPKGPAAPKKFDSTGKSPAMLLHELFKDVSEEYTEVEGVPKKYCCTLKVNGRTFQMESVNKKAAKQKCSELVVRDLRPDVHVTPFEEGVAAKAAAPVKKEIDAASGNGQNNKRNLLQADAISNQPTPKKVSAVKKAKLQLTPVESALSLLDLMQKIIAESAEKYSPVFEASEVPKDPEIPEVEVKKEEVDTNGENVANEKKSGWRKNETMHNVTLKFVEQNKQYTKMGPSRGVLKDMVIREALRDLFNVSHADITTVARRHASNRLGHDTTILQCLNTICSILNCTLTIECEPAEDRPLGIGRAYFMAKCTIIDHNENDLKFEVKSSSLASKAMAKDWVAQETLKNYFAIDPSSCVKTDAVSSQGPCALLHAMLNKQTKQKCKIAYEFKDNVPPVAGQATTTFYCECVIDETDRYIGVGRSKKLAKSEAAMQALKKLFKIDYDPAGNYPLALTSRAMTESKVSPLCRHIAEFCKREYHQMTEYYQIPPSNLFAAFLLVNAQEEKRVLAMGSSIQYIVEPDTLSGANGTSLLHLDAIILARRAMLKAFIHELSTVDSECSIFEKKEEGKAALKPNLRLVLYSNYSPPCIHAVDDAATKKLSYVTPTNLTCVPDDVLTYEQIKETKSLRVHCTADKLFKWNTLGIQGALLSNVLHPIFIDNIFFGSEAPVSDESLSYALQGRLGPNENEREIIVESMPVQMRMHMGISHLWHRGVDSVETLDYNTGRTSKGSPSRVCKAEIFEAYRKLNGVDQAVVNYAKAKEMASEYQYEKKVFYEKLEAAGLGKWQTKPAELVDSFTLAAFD
Experiment: EMSA; apparent Kd; EMSA: 20 pM dsRNA, 50 mM KCl, 10 mM Tris-HCl pH 8.0, 10% glycerol, 1 mM MgCl2, 0.5 mM DTT, on ice 30 min; native 6% gel, 0.5x TBE, 4 C
Settings: protein: recombinant; tags: N-terminal 6xHis (TEV site); label: 5' 32P on ssRNAs (PNK); imperfect duplex; printed strands 45 and 46 nt

B1: lam-2 3'UTR 46 bp dsRNA (dsRNA)
RNA 1: AGACACACAUACAAAAUUUACAAAAAUUGUUAAUUGACAAAAUAC
RNA 2: GUGUUUUGCCAAUUAACGAUUUUUUGUAAAUUUUAUAUGUGUCUCU
B1 gave a Kd of 1.75 ± 0.15 nM.
